# Molecular target: CPn0678–GFP (Chlamydia pneumoniae)
# Experiment: FRET or BRET
substance,measurement,value
mCherry–SNX9 (from UniProt Q9Y5X1 1-595) (natural protein),average donor fluorescence lifetime with the acceptor (FLIM-FRET),2.6 ns
same,reduction of donor fluorescence lifetime (FLIM-FRET),256 ps

# Reference: PMC7007526
